Where a chain is given by its changes, count along the chain named. Numbers in names are those of the source.

The labels stand for the following.
B1: equine IgG1 N434C (antibody, part only; not given: variable domains, not shown: another chain or arm of the molecule)
constant: ASTTAPKVFALAPGCGTTSDSTVALGCLVSGYFPEPVKVSWNSGSLTSGVHTFPSVLQSSGFYSLSSMVTVPASTWTSETYICNVVHAASNFKVDKRIEPIPDNHQKVCDMSKCPKCPAPELLGGPSVFIFPPNPKDTLMITRTPEVTCVVVDVSQENPDVKFNWYMDGVEVRTATTRPKEEQFNSTYRVVSVLRIQHQDWLSGKEFKCKVNNQALPQPIERTITKTKGRSQEPQVYVLAPHPDELSKSKVSVTCLVKDFYPPEINIEWQSNGQPELETKYSTTQAQQDSDGSYFLYSKLSVDRNRWQQGTTFTCGVMHEALHCHYTQKNVSKNPGK
B2: equine IgG1 N434E (antibody, part only; not given: variable domains, not shown: another chain or arm of the molecule)
constant: B1 constant with C324E
B3: equine IgG7 wild-type (antibody, part only; not given: variable domains; allotype unstated, not shown: another chain or arm of the molecule)
constant: ASTTAPKVFPLASHSAATSGSTVALGCLVSSYFPEPVTVSWNSGALTSGVHTFPSVLQSSGLYSLSSMVTVPASSLKSQTYICNVAHPASSTKVDKKIVIKECGGCPTCPECLSVGPSVFIFPPKPKDVLMISRTPTVTCVVVDVGHDFPDVQFNWYVDGVETHTATTEPKQEQNNSTYRVVSILAIQHKDWLSGKEFKCKVNNQALPAPVQKTISKPTGQPREPQVYVLAPHRDELSKNKVSVTCLVKDFYPTDIDIEWKSNGQPEPETKYSTTPAQLDSDGSYFLYSKLTVETNRWQQGTTFTCAVMHEALHNHYTEKSVSKSPGK
B4: equine IgG7 K311Q mutant (antibody, part only; not given: Variable domains, not shown: another chain or arm of the molecule)
constant: B3 constant with K190Q
B5: equine IgG7 A426T mutant (antibody, part only; not given: Variable domains, not shown: another chain or arm of the molecule)
constant: B3 constant with A307T
B6: equine IgG7 M428I mutant (antibody, part only; not given: variable domains, not shown: another chain or arm of the molecule)
constant: B3 constant with M309I
B7: equine IgG7 M428F mutant (antibody, part only; not given: variable domains, not shown: another chain or arm of the molecule)
constant: B3 constant with M309F
B8: equine IgG7 M428K mutant (antibody, part only; not given: variable domains, not shown: another chain or arm of the molecule)
constant: B3 constant with M309K
B9: equine IgG7 M428Q mutant (antibody, part only; not given: variable domains, not shown: another chain or arm of the molecule)
constant: B3 constant with M309Q
B10: equine IgG7 A426W mutant (antibody, part only; not given: variable domains, not shown: another chain or arm of the molecule)
constant: B3 constant with A307W
B11: equine IgG7 M428H mutant (antibody, part only; not given: variable domains, not shown: another chain or arm of the molecule)
constant: B3 constant with M309H
B12: equine IgG7 K311R mutant (antibody, part only; not given: variable domains, not shown: another chain or arm of the molecule)
constant: B3 constant with K190R
B13: equine IgG7 K311L mutant (antibody, part only; not given: variable domains, not shown: another chain or arm of the molecule)
constant: B3 constant with K190L
B14: equine IgG7 M428G mutant (antibody, part only; not given: variable domains, not shown: another chain or arm of the molecule)
constant: B3 constant with M309G
B15: equine IgG7 A426R mutant (antibody, part only; not given: Variable domains, not shown: another chain or arm of the molecule)
constant: B3 constant with A307R
B16: equine IgG7 A426V mutant (antibody, part only; not given: variable domains, not shown: another chain or arm of the molecule)
constant: B3 constant with A307V
B17: equine IgG7 K311C mutant (antibody, part only; not given: variable domains, not shown: another chain or arm of the molecule)
constant: B3 constant with K190C
B18: equine IgG7 M428R mutant (antibody, part only; not given: variable domains, not shown: another chain or arm of the molecule)
constant: B3 constant with M309R
B19: equine IgG7 K311F mutant (antibody, part only; not given: variable domains, not shown: another chain or arm of the molecule; small tags and cut ends)
constant: B3 constant with K190F
B20: equine IgG7 A426S mutant (antibody, part only; not given: variable domains, not shown: another chain or arm of the molecule)
constant: B3 constant with A307S
B21: equine IgG7 A426L mutant (antibody, part only; not given: Variable domains, not shown: another chain or arm of the molecule)
constant: B3 constant with A307L
B22: equine IgG7 A426H mutant (antibody, part only; not given: variable domains, not shown: another chain or arm of the molecule)
constant: B3 constant with A307H
B23: equine IgG7 M428E mutant (antibody, part only; not given: variable domains, not shown: another chain or arm of the molecule)
constant: B3 constant with M309E
B24: equine IgG7 M428S mutant (antibody, part only; not given: variable domains, not shown: another chain or arm of the molecule)
constant: B3 constant with M309S
B25: equine IgG7 M428L mutant (antibody, part only; not given: Variable domains, not shown: another chain or arm of the molecule)
constant: B3 constant with M309L
B26: equine IgG7 M428C mutant (antibody, part only; not given: Variable domains, not shown: another chain or arm of the molecule)
constant: B3 constant with M309C
B27: equine IgG7 A426Y mutant (antibody, part only; not given: variable domains, not shown: another chain or arm of the molecule)
constant: B3 constant with A307Y
B28: equine IgG7 A426Q mutant (antibody, part only; not given: variable domains, not shown: another chain or arm of the molecule)
constant: B3 constant with A307Q
B29: equine IgG7 M428D mutant (antibody, part only; not given: variable domains, not shown: another chain or arm of the molecule)
constant: B3 constant with M309D
B30: equine IgG7 A426I mutant (antibody, part only; not given: variable domains, not shown: another chain or arm of the molecule)
constant: B3 constant with A307I
B31: equine IgG7 K311H mutant (antibody, part only; not given: Variable domains, not shown: another chain or arm of the molecule)
constant: B3 constant with K190H
B32: equine IgG7 K311S mutant (antibody, part only; not given: variable domains, not shown: another chain or arm of the molecule)
constant: B3 constant with K190S
B33: equine IgG7 A426N mutant (antibody, part only; not given: Variable domains, not shown: another chain or arm of the molecule)
constant: B3 constant with A307N
B34: equine IgG7 A426P mutant (antibody, part only; not given: variable domains, not shown: another chain or arm of the molecule)
constant: B3 constant with A307P
B35: equine IgG7 A426K mutant (antibody, part only; not given: variable domains, not shown: another chain or arm of the molecule)
constant: B3 constant with A307K
B36: equine IgG7 K311M mutant (antibody, part only; not given: variable domains, not shown: another chain or arm of the molecule)
constant: B3 constant with K190M
B37: equine IgG7 K311V mutant (antibody, part only; not given: variable domains, not shown: another chain or arm of the molecule)
constant: B3 constant with K190V
B38: equine IgG7 K311G mutant (antibody, part only; not given: variable domains, not shown: another chain or arm of the molecule)
constant: B3 constant with K190G
B39: equine IgG7 K311W mutant (antibody, part only; not given: variable domains, not shown: another chain or arm of the molecule)
constant: B3 constant with K190W
B40: equine IgG7 K311D mutant (antibody, part only; not given: Variable domains, not shown: another chain or arm of the molecule)
constant: B3 constant with K190D
B41: equine IgG7 K311N mutant (antibody, part only; not given: variable domains, not shown: another chain or arm of the molecule)
constant: B3 constant with K190N
B42: equine IgG7 A426M mutant (antibody, part only; not given: variable domains, not shown: another chain or arm of the molecule)
constant: B3 constant with A307M
B43: equine IgG7 M428W mutant (antibody, part only; not given: variable domains, not shown: another chain or arm of the molecule)
constant: B3 constant with M309W
B44: equine IgG7 A426C mutant (antibody, part only; not given: variable domains, not shown: another chain or arm of the molecule)
constant: B3 constant with A307C
B45: equine IgG7 K311T mutant (antibody, part only; not given: variable domains, not shown: another chain or arm of the molecule)
constant: B3 constant with K190T
B46: equine IgG7 K311Y mutant (antibody, part only; not given: variable domains, not shown: another chain or arm of the molecule)
constant: B3 constant with K190Y
B47: equine IgG7 A426E mutant (antibody, part only; not given: variable domains, not shown: another chain or arm of the molecule)
constant: B3 constant with A307E
B48: equine IgG7 K311E mutant (antibody, part only; not given: variable domains, not shown: another chain or arm of the molecule)
constant: B3 constant with K190E
B49: equine IgG7 A426G mutant (antibody, part only; not given: variable domains, not shown: another chain or arm of the molecule)
constant: B3 constant with A307G
B50: equine IgG7 K311I mutant (antibody, part only; not given: variable domains, not shown: another chain or arm of the molecule)
constant: B3 constant with K190I
B51: equine IgG7 A426D mutant (antibody, part only; not given: variable domains, not shown: another chain or arm of the molecule)
constant: B3 constant with A307D
B52: equine IgG7 K311A mutant (antibody, part only; not given: Variable domains, not shown: another chain or arm of the molecule)
constant: B3 constant with K190A
B53: equine IgG7 A426F mutant (antibody, part only; not given: variable domains, not shown: another chain or arm of the molecule)
constant: B3 constant with A307F

The target in the first experiment is equine FcRn (large alpha subunit p51) / equine beta-2-microglobulin complex, biotinylated (equine) (UniProt P30441). Briefly: SPR (Biacore), pH 6.
UniProt P30441, sequence (P30441 21-118, one chain of several): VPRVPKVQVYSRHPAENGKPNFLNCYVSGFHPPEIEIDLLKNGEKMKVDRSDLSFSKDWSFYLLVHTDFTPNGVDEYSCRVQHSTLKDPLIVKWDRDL
Broadly, the Kd is the constant that tells how readily two partners part at equilibrium. B1 gave an equilibrium dissociation constant (Kd) of 42.6 nM.

As for B2, the Kd was 50.6 nM.

In the next experiment the target is equine FcRn (large alpha subunit p51) in complex with equine beta-2-microglobulin (equine) (UniProt F6XZ61). Briefly: SPR (Biacore), pH 6. On the technique in general: In SPR one partner is held on a chip, and binding of the other changes the refractive index at the surface.
UniProt F6XZ61, sequence (F6XZ61 entry or part of it, one chain of several): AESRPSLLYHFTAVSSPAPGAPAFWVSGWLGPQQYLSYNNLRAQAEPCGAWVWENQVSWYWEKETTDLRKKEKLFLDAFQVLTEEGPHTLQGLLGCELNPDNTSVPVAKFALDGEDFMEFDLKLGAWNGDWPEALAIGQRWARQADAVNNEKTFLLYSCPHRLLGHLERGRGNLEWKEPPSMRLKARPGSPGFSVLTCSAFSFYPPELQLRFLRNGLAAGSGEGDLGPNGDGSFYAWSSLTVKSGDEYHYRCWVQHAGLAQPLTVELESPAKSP
The molecule B3 returned a dissociation constant (Kd) of 21.7 nM.

As to B4, the Kd was 39.5 nM.

As for B5, the Kd is 26.5 nM.

B6: the Kd turned out to be 240 nM.

Consider B7, for which the Kd came out at 23.9 nM.

With B8, the Kd turned out to be 63.5 nM.

Regarding B9, the dissociation constant (Kd) worked out at 20 nM.

B10 registered a dissociation constant (Kd) of 24.1 nM.

B11 yielded a Kd of 165 nM.

For B12, the Kd is 11.8 nM.

Molecule B13 returned a Kd of 17.3 nM.

Molecule B14 came in with a Kd of 96.9 nM.

For the molecule B15, the Kd amounted to 35 nM.

The molecule B16 yielded a Kd of 23.3 nM.

For B17, the dissociation constant Kd was 15.9 nM.

The molecule B18 showed a Kd of 1.2 nM.

Regarding B19, the Kd amounted to 20.5 nM.

B20: the Kd was 40.4 nM.

In the case of B21, the Kd was found to be 15.6 nM.

On to B22, for which the Kd was found to be 18.4 nM.

In turn, B23 came in with a Kd of 39.8 nM.

B24 gave a Kd of 5.8 nM.

For the molecule B25, the equilibrium dissociation constant (Kd) came out at 10.5 nM.

For B26, the Kd was 14600 nM.

In the case of B27, the Kd was found to be 21.1 nM.

B28 displayed a Kd of 18.6 nM.

In the case of B29, the Kd came to 2000 nM.

As to B30, the Kd is 12.6 nM.

Turning to B31, the Kd came to 19 nM.

B32: the equilibrium dissociation constant (Kd) amounted to 27.6 nM.

B33 gave a Kd of 15.8 nM.

In turn, B34 registered a Kd of 23.2 nM.

Take B35: the Kd worked out at 17.8 nM.

As for B36, the Kd is 10.4 nM.

Turning to B37, the Kd was 21.3 nM.

B38 had a Kd of 20.9 nM.

B39 returned an equilibrium dissociation constant (Kd) of 22.1 nM.

Regarding B40, the Kd is 34.1 nM.

Consider B41, for which the Kd came out at 38 nM.

For the molecule B42, the dissociation constant (Kd) was found to be 22.7 nM.

For B43, the Kd was found to be 6.6 nM.

For B44, the dissociation constant Kd came to 14.4 nM.

Consider B45, for which the Kd worked out at 19.4 nM.

For B46, the Kd was 18.9 nM.

B47 had a Kd of 13.4 nM.

For the molecule B48, the dissociation constant Kd worked out at 60 nM.

In the case of B49, the Kd came out at 13.6 nM.

For the molecule B50, the Kd is 15.1 nM.

Regarding B51, the Kd is 18.9 nM.

Consider B52, for which the Kd was found to be 24.4 nM.

B53 registered a Kd of 13.2 nM.

Source of the values: US20260070987A1.
